Reference: patent US20160311919A1

How the values were obtained:
[1] = molecular target: GPNMB (CG56972), native full-length protein on the cell surface or in cell lysates (human) (UniProt Q14956); assay: FACS, UACC-62 cells, Ab 1 ug/mL
[2] = molecular target: GPNMB (CG56972), native full-length protein on the cell surface or in cell lysates (human) (UniProt Q14956); assay: flow cytometry on SK-MEL-2 cells, Anti Human IgG PE
[3] = molecular target: GPNMB-V5His (recombinant human GPNMB extracellular domain with C-terminal V5-His tag) (human) (UniProt Q14956); assay: ELISA, coated GPNMB, Ab 1 ug/mL
[4] = molecular target: GPNMB-V5His (recombinant human GPNMB extracellular domain with C-terminal V5-His tag) (human) (UniProt Q14956); assay: ELISA, coated GPNMB, Ab 3 ug/mL
[5] = molecular target: GPNMB-V5His (recombinant human GPNMB extracellular domain with C-terminal V5-His tag) (human) (UniProt Q14956); assay: ELISA, coated GPNMB, Ab 111 ng/mL
[6] = molecular target: GPNMB-V5His (recombinant human GPNMB extracellular domain with C-terminal V5-His tag) (human) (UniProt Q14956); assay: ELISA, coated GPNMB, Ab 333 ng/mL
[7] = molecular target: GPNMB-V5His (recombinant human GPNMB extracellular domain with C-terminal V5-His tag) (human) (UniProt Q14956); assay: ELISA, coated GPNMB, Ab 37 ng/mL
[8] = molecular target: GPNMB-V5His (recombinant human GPNMB extracellular domain with C-terminal V5-His tag) (human) (UniProt Q14956); assay: ELISA, coated GPNMB, Ab 12.3 ng/mL
[9] = molecular target: GPNMB-V5His (recombinant human GPNMB extracellular domain with C-terminal V5-His tag) (human) (UniProt Q14956); assay: SPR (Biacore), mAb on protein A, GPNMB 880 nM
[10] = molecular target: GPNMB-V5His (recombinant human GPNMB extracellular domain with C-terminal V5-His tag) (human) (UniProt Q14956); assay: ELISA, coated GPNMB, secondary antibody alone (column head 3 ug/mL)
[11] = molecular target: GPNMB (CG56972), native full-length protein on the cell surface or in cell lysates (human) (UniProt Q14956); assay: flow cytometry on HEK293 cells transfected with GPNMB plasmid, secondary antibody alone; on empty-vector cells it prints 5.86
[12] = molecular target: GPNMB (CG56972), native full-length protein on the cell surface or in cell lysates (human) (UniProt Q14956); assay: flow cytometry on HEK293 cells transfected with GPNMB plasmid, 10 µg/mL antibody, PE goat anti-human secondary; the same staining on empty-vector cells prints 7.96

Sequence of GPNMB (CG56972), native full-length protein on the cell surface or in cell lysates (human) (Q14956 23-492): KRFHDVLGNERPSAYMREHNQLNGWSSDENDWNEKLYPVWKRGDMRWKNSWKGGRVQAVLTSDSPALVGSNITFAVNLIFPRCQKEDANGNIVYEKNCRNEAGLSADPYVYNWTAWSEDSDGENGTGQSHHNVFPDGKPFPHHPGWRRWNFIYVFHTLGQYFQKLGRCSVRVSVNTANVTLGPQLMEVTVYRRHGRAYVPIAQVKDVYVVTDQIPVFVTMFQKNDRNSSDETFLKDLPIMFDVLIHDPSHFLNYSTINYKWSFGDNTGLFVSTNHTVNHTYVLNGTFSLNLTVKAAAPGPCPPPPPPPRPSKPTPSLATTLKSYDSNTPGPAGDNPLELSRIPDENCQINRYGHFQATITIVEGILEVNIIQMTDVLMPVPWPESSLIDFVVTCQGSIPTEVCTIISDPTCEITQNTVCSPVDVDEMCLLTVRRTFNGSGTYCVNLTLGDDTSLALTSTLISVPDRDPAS

Avg OD [3]	Avg OD [4]	Avg OD [5]	Avg OD [6]	Substance	further results
–	–	–	–	CR011.2.6.2 (antibody)	Geo Mean Ratio (relative to pK16) [1]: 1.9
–	–	–	–	Control (antibody)	Geo Mean [2]: 3.03; Mean [2]: 3.54; Median [2]: 2.84
0.008 OD	0.009 OD	0.013 OD	0.012 OD	Irrelevant Antibody (Table 6)	–
0.008 OD	0.009 OD	0.009 OD	0.009 OD	Isotype control (Table 6) (antibody)	Avg OD [7]: 0.009 OD; Avg OD [8]: 0.011 OD
1.05 OD	1.16 OD	0.701 OD	0.902 OD	Mab1.15.1 (CR011), fully human IgG2 (antibody)	Avg OD [7]: 0.381 OD; Avg OD [8]: 0.168 OD; Kd [9]: 0.052 µM
–	–	–	–	Secondary Ab control (Table 6) (antibody)	Avg OD [10]: 0.011 OD
–	–	–	–	Secondary Ab-PE (antibody)	Geometric Mean [11]: 7.69
–	–	–	–	isotype-matched control IgG2 antibody	Geometric Mean [12]: 8.63
